Reference: US20220380478A1 (published 2022)
Like-named read-outs stand apart in the source and are kept apart here.

T1: CD32aH (FcγRIIaH) (UniProt P12318 34-217)
T1 chain: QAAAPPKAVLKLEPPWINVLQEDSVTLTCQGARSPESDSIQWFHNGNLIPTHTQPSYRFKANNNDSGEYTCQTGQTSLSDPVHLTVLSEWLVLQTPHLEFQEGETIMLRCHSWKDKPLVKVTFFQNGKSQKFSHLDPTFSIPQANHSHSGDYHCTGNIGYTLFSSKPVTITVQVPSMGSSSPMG

T2: CD32bF (FcγRIIbF) (UniProt P31994 43-217)
T2 chain: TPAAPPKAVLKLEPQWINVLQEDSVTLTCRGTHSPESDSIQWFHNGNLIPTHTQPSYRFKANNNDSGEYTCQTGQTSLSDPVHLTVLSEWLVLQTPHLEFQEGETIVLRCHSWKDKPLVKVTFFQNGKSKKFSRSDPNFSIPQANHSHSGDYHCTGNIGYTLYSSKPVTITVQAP

T3: FcγRIA (CD64) (UniProt P12314 16-292)
T3 chain: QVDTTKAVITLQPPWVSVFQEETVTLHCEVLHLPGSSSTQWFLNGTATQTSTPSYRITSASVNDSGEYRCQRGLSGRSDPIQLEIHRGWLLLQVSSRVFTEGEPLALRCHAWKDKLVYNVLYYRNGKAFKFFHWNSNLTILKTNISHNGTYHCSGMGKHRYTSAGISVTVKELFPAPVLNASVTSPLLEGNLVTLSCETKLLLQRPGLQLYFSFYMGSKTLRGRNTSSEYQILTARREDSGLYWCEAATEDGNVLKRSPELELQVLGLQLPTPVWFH

B1: TNX02 anti-CD154 monoclonal antibody (antibody)
heavy: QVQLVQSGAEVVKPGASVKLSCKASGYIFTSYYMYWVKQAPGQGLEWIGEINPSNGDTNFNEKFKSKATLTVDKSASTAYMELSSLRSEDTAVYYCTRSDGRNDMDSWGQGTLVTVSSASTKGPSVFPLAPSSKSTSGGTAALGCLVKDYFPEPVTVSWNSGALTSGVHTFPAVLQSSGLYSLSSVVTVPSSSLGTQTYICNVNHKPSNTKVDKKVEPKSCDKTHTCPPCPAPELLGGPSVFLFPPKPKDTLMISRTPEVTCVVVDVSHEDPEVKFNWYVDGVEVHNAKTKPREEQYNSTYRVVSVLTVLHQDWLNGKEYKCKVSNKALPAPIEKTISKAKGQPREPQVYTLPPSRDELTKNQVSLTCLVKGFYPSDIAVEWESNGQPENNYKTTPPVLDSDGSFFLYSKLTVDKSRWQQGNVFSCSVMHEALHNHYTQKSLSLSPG
light: DIVLTQSPATLSVSPGERATISCRASQRVSSSTYSYMHWYQQKPGQPPKLLIKYASNLESGVPARFSGSGSGTDFTLTISSVEPEDFATYYCQHSWEIPPTFGGGTKLEIKRTVAAPSVFIFPPSDEQLKSGTASVVCLLNNFYPREAKVQWKVDNALQSGNSQESVTEQDSKDSTYSLSSTLTLSKADYEKHKVYACEVTHQGLSSPVTKSFNRGEC
B2: TNX04 anti-CD154 monoclonal antibody (antibody)
heavy: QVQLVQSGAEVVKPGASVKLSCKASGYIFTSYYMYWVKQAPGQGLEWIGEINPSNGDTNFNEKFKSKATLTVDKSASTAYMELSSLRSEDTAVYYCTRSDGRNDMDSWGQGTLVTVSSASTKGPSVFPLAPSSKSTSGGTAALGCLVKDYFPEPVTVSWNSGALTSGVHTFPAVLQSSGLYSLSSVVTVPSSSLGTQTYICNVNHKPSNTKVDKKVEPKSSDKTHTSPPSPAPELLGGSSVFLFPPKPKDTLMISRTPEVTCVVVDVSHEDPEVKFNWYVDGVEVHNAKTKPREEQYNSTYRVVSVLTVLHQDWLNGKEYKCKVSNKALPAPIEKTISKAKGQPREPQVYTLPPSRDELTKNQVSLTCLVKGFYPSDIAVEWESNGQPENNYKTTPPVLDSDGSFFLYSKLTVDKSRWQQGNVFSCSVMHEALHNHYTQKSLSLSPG
light: DIVLTQSPATLSVSPGERATISCRASQRVSSSTYSYMHWYQQKPGQPPKLLIKYASNLESGVPARFSGSGSGTDFTLTISSVEPEDFATYYCQHSWEIPPTFGGGTKLEIKRTVAAPSVFIFPPSDEQLKSGTASVVCLLNNFYPREAKVQWKVDNALQSGNSQESVTEQDSKDSTYSLSSTLTLSKADYEKHKVYACEVTHQGLSSPVTKSFNRGEC
B3: TNX05 anti-CD154 monoclonal antibody (antibody)
heavy: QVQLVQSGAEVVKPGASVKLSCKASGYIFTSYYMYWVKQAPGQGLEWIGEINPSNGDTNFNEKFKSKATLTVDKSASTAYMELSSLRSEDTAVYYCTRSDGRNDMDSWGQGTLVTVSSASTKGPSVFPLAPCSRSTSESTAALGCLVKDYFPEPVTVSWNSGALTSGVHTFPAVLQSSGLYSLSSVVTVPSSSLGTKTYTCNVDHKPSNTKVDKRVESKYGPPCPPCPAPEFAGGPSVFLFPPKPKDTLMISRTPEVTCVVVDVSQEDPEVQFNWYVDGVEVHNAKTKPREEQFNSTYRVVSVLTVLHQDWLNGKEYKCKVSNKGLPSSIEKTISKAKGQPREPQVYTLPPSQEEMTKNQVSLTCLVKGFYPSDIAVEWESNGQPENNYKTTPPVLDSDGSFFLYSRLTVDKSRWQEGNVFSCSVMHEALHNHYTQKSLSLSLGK
light: DIVLTQSPATLSVSPGERATISCRASQRVSSSTYSYMHWYQQKPGQPPKLLIKYASNLESGVPARFSGSGSGTDFTLTISSVEPEDFATYYCQHSWEIPPTFGGGTKLEIKRTVAAPSVFIFPPSDEQLKSGTASVVCLLNNFYPREAKVQWKVDNALQSGNSQESVTEQDSKDSTYSLSSTLTLSKADYEKHKVYACEVTHQGLSSPVTKSFNRGEC
B4: TNX09 anti-CD154 monoclonal antibody (antibody)
heavy: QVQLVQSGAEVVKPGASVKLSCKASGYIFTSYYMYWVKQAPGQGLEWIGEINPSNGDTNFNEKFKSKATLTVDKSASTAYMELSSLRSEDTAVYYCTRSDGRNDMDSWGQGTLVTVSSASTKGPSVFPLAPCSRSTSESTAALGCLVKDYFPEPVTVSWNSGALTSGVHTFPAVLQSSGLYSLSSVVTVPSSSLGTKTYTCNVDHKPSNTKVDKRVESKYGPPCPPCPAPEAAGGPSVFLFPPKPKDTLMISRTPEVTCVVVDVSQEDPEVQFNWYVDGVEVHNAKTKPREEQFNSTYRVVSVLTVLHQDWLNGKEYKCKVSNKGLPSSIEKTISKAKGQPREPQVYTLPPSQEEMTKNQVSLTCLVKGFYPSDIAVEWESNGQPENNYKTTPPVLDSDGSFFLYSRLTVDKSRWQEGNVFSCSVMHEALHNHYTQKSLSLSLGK
light: DIVLTQSPATLSVSPGERATISCRASQRVSSSTYSYMHWYQQKPGQPPKLLIKYASNLESGVPARFSGSGSGTDFTLTISSVEPEDFATYYCQHSWEIPPTFGGGTKLEIKRTVAAPSVFIFPPSDEQLKSGTASVVCLLNNFYPREAKVQWKVDNALQSGNSQESVTEQDSKDSTYSLSSTLTLSKADYEKHKVYACEVTHQGLSSPVTKSFNRGEC
B5: TNX11 anti-CD154 monoclonal antibody (antibody)
heavy: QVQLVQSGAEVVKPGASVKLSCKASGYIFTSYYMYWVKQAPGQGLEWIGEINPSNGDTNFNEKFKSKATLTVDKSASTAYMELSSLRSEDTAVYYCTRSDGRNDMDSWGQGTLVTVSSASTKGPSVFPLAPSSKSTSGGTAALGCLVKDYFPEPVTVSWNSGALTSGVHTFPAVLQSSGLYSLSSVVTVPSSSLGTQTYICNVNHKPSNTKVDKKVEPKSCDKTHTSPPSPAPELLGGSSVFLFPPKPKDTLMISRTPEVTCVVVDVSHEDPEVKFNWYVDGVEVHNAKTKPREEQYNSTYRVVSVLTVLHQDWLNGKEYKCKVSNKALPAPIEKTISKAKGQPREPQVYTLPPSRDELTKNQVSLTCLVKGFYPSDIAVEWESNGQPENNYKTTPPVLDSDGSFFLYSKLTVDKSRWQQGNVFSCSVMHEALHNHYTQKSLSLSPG
light: DIVLTQSPATLSVSPGERATISCRASQRVSSSTYSYMHWYQQKPGQPPKLLIKYASNLESGVPARFSGSGSGTDFTLTISSVEPEDFATYYCQHSWEIPPTFGGGTKLEIKRTVAAPSVFIFPPSDEQLKSGTASVVCLLNNFYPREAKVQWKVDNALQSGNSQESVTEQDSKDSTYSLSSTLTLSKADYEKHKVYACEVTHQGLSSPVTKSFNRGEC
B6: TNX08 anti-CD154 monoclonal antibody (antibody)
heavy: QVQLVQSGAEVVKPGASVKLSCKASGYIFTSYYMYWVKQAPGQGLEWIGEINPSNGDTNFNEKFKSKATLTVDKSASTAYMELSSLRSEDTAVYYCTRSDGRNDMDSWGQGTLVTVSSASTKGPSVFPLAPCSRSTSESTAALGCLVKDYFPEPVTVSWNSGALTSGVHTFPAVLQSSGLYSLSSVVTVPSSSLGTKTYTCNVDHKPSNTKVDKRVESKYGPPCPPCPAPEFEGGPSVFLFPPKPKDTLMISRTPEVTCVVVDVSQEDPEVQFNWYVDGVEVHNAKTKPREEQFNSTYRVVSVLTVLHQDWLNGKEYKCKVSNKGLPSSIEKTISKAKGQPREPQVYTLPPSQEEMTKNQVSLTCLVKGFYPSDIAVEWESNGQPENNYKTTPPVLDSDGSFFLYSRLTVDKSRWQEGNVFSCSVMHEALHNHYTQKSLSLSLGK
light: DIVLTQSPATLSVSPGERATISCRASQRVSSSTYSYMHWYQQKPGQPPKLLIKYASNLESGVPARFSGSGSGTDFTLTISSVEPEDFATYYCQHSWEIPPTFGGGTKLEIKRTVAAPSVFIFPPSDEQLKSGTASVVCLLNNFYPREAKVQWKVDNALQSGNSQESVTEQDSKDSTYSLSSTLTLSKADYEKHKVYACEVTHQGLSSPVTKSFNRGEC
B7: TNX03 anti-CD154 monoclonal antibody (antibody)
heavy: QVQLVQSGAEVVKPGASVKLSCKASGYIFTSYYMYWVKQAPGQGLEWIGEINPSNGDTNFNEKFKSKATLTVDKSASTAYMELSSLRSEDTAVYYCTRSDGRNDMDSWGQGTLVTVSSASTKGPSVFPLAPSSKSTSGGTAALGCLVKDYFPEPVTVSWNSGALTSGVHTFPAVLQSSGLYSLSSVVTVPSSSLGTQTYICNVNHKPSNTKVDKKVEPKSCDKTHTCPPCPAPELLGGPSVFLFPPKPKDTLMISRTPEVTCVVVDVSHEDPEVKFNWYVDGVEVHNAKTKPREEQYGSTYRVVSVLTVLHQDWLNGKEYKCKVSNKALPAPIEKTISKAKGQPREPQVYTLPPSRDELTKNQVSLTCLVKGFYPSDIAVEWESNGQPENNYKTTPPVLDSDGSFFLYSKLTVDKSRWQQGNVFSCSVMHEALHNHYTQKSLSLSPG
light: DIVLTQSPATLSVSPGERATISCRASQRVSSSTYSYMHWYQQKPGQPPKLLIKYASNLESGVPARFSGSGSGTDFTLTISSVEPEDFATYYCQHSWEIPPTFGGGTKLEIKRTVAAPSVFIFPPSDEQLKSGTASVVCLLNNFYPREAKVQWKVDNALQSGNSQESVTEQDSKDSTYSLSSTLTLSKADYEKHKVYACEVTHQGLSSPVTKSFNRGEC

How the values were obtained:
CD32aH (FcγRIIaH) [1] = target: T1, CD32aH (FcγRIIaH); assay: SPR
CD16aV (FcγRIIIaV) [2] = target: T4, CD16aV (FcγRIIIaV) (UniProt P08637 17-208); assay: SPR
CD16aF (FcγRIIIaF) [3] = target: T5, CD16aF (FcγRIIIaF) (UniProt P08637 17-208); assay: SPR
CD32bF (FcγRIIbF) [4] = target: T2, CD32bF (FcγRIIbF); assay: SPR
CD32aH (FcγRIIaH) [5] = target: T1, CD32aH (FcγRIIaH); assay: SPR
CD16aV (FcγRIIIaV) [6] = target: T4, CD16aV (FcγRIIIaV); assay: SPR; remark: listed apart in the source
CD16aF (FcγRIIIaF) [7] = target: T5, CD16aF (FcγRIIIaF); assay: SPR; remark: listed apart in the source
CD32bF (FcγRIIbF) [8] = target: T2, CD32bF (FcγRIIbF); assay: SPR
FcγRIA (CD64) [9] = target: T3, FcγRIA (CD64); assay: SPR; avid
FcγRIA (CD64) [10] = target: T3, FcγRIA (CD64); assay: SPR; avid
FcγRIA (CD64) [11] = target: T3, FcγRIA (CD64); assay: SPR

T5 sequence (P08637 17-208): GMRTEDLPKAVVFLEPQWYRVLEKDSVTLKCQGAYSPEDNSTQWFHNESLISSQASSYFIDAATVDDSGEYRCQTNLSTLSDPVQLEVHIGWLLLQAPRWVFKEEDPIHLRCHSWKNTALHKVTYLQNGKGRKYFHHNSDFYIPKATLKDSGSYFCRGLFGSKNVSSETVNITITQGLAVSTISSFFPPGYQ
T4 sequence (P08637 17-208 F176V): as the sequence (P08637 17-208) above, with F160V counted along it

Binder | Kd (CD32aH (FcγRIIaH) [1]) [nM] | Kd (CD16aV (FcγRIIIaV) [2]) [nM] | Kd (CD16aF (FcγRIIIaF) [3]) [nM] | Kd (CD32bF (FcγRIIbF) [4]) [nM] | Kd (CD32aH (FcγRIIaH) [5]) [nM] | Kd (CD16aV (FcγRIIIaV) [6]) [nM] | Kd (CD16aF (FcγRIIIaF) [7]) [nM] | Kd (CD32bF (FcγRIIbF) [8]) [nM] | Kd (FcγRIA (CD64) [9]) [nM] | Kd (FcγRIA (CD64) [10]) [nM] | Kd (FcγRIA (CD64) [11]) [nM]
B1 | 525 | 333 | 1810 | 1030 | 500 | 320 | 1700 | 910 | 0.0288 | – | –
B2 | – | – | – | – | 36600 | 18700 | > 5000 | 18000 | 0.309 | 0.33 | –
B3 | – | – | – | – | 7170 | 6040 | 8110 | 4900 | 8.8 | 8.7 | –
B4 | > 12000 | 3770 | > 5000 | > 12000 | – | – | – | – | – | – | 147
B5 | > 12000 | > 5000 | > 5000 | > 12000 | – | – | – | – | – | – | 0.479
B6 | 9030 | 3560 | 4440 | 4200 | – | – | – | – | – | – | 103
B7 | – | – | – | – | > 12000 | > 5000 | > 5000 | > 12000 | 89.8 | 92 | –
